In PMC11117022 (Advanced Healthcare Materials, 2022):
Where two headings read alike, the source gives them in different places.

Key:
[1] = biological target: the molecule itself; experiment: SEC
[2] = biological target: the molecule itself; experiment: SEC; remark: listed apart in the source

B1: mouse SIINFEKL‐STINGΔTM (other, chicken | mouse)
chain: GLEQLESIINFEKLTEWTSSLTPAEVSAVCEEKKLNVAHGLAWSYYIGYLRLILPGLQARIRMFNQLHNNMLSGAGSRRLYILFPLDCGVPDNLSVVDPNIRFRDMLPQQNIDRAGIKNRVYSNSVYEILENGQPAGVCILEYATPLQTLFAMSQDAKAGFSREDRLEQAKLFCRTLEEILEDVPESRNNCRLIVYQEPTDGNSFSLSQEVLRHIRQEEKEEVTMNAPMTSVAPPPSVLSQEPRLLISGMDQPLPLRTDLI
**Q.** For B1, which “stoichiometry N” value [1] is on record?
**A.** 2

**Q.** What about the “stoichiometry N” value [2] of the same protein?
**A.** 4
